Data taken from patent US20250011431A1 (ADIVO, published 2025).
Positions count from the first letter of the chain named. Values belong to the binder of their own block, whether it stands above or below them.

Key:
[1] = target: T1, biotinylated cPD-L1_hFc (Sino Biological Cat. 70110-D02H-B) (canine; human, biotinylated (sites not given)); assay: Fab-capture ELISA: Fab on anti-canine Fab capture antibody, cPD-L1_hFc-Biotin titrated
T1 construct: also called cPD-L1-biotin; cPD-L1_hFc-Biotin; not shown: human Fc tag (hFc)
T1 chain: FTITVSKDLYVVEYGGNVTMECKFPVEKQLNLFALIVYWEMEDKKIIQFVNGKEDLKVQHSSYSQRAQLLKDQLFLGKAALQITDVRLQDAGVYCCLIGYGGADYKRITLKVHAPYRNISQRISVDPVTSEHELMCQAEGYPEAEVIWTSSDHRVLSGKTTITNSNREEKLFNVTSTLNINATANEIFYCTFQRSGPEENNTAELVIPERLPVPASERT
Method: The screening was performed as described in Example 4. Fab binders of CAN1005016 and CAN1005019 were loaded onto plate-bound anti-canine Fab capture antibody, followed by addition of titration series of cPD-L1_hFc-Biotin. Detection was performed with Streptavidin-HRP. The parental clone CAN1005001 was included as a control. Curve fits and EC50 values were analyzed with GraphPad Prism.

PD-L1-his [2] = target: T2, PD-L1-his (canine); assay: grating-coupled interferometry (waveRAPID): antibody captured on PAG chip, PD-L1-his as analyte, 1:1 fit, 25 C
T2 construct: also called monovalent PD-L1 antigen; not shown: his tag
T2 chain: T1 chain
Method: (§1) To further characterize the kinetic properties of our candidates CAN1005016 and CAN1005019, the KD of our candidates was quantified using waveRAPID in a GCI system according to the procedure described below. The binding kinetics study was performed on the Creoptix® WAVEdelta system using a PAG sensor chip (Creoptix, a Malvern Panalytical brand). All experiments were performed with HBS-EP (Cytiva) as running buffer, at a temperature of 25° C. and sampling rate of 10 Hz. Data acquisition and evaluation were performed using WAVEcontrol software version 4.5.13.
(§2) Prior to ligand capturing, the sensor chip was conditioned by a 180 sec injection of 100 mM sodium borate, 1 M NaCl, pH 9 (Xantec). Antibody was diluted to 1 μg/ml in HBS-EP and captured to a density of =300 pg/mm2 on flow channel 2. Flow channel 1 was left blank to serve as a reference surface. For collection of kinetic data, PD-L1-his was diluted to 200 nM in HBS-EP and injected over ligand and reference surfaces in repeated analyte pulses of increasing duration (waveRAPID) at flowrate of 60 μl/min. PD-L1-his was injected for a total duration of 180 sec, followed by measuring complex-dissociation in running buffer for 30 min. Blank injections were performed to enable double referencing of the data and a 0.5% DMSO pulse injection (running buffer with 0.5% DMSO) was used as an analyte concentration modulation calibration curve. Data were corrected (X and Y offset, DMSO calibration, double referencing) and fitted with a simple 1:1 interaction model (global fit) to obtain kinetic parameters.

canine PD-L1 on cells = target: T3, canine PD-L1 on cells (canine); assay: flow cytometry on HEK293c18 cells transfected with canine PD-L1
T3 construct: also called wildtype canine PD-L1 on transfected HEK293c18 cells
T3 chain: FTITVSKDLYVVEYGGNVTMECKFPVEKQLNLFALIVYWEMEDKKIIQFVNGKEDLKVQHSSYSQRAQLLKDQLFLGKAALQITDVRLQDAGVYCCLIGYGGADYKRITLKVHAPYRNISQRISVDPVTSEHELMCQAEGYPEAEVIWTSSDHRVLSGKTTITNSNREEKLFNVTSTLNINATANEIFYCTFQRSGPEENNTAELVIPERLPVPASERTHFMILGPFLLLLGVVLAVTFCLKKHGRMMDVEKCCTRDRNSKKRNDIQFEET
Method: HEK293c18 cells were seeded in 6 well plates at a density of 1×10⁶ cells/well in DMEM+10% FCS. The next day, the transfection mix was prepared. […] Per well, 2 μg of the plasmid encoding for wildtype canine PD-L1 was diluted in 200 μl jetPRIME buffer. The solution was mixed and 4 μl of the transfection reagent was added, followed by mixing and centrifuging of the mixture. Then, the medium of the adherent cells is replaced by fresh medium and the transfection mix is carefully added onto the cells. The plate containing the transfected cells is placed back in the incubator and incubated for 24 h.
The cells were washed once by addition of 200 μl per well PBS/EDTA and centrifugation at 1500 rpm for 5 min. The supernatant was carefully decanted by holding the plate upside down above a waste and dried on a paper towel. Then, the cells were stained for dead cells with the dye Zombie violet (Biolegend; Cat.: 423114) diluted 1:500 in PBS/EDTA for 15 minutes at 4° C. in the dark. Subsequently, cells were washed with FACS Buffer (PBS/EDTA+2% FCS) as described above. Titration series of CAN1005016 and CAN1005019 usually ranging from 10 ng/ml to 10 μg/ml were prepared diluted in FACS buffer and added to the respective wells for a 30-minute incubation at 4° C. in the dark. […] Finally, the cells were washed again 3× and then resuspended in 200 μl FACS buffer and measured directly.

[3] = target: T4, cPD-L1_hFc (canine PD-L1 Fc-fusion protein; Sino Biological Cat. 70110-D02H) (canine; human); assay: binding ELISA, IgG titrated on plate-bound cPD-L1_hFc
T4 construct: Bought product; also called canine PD-L1_hFc; cPD-L1 fusion protein; not shown: human Fc tag (hFc)
T4 chain: T1 chain
Method: cPD-L1 fusion proteins were directly immobilized on the plate, commonly in a concentration of 57 nM. For binding ELISA, black 384 well Maxisorp plates were used. This was performed overnight at 4° C. The coated plates were washed 3× with PBS-T, followed by blocking with Chemiblocker (Merck-Millipore; 2170) for 1 h at RT. After blocking, dilution series of the respective antibodies were added to the plate usually covering concentrations ranging from the single digit ng/ml to the single-digit ug/ml range. Antibodies were also incubated for 1 h at RT, followed by washing and by addition of suitable detection antibodies coupled to HRP. Measurement was carried out as described above for the Screening ELISA.

[4] = target: T4, cPD-L1_hFc (canine PD-L1 Fc-fusion …); assay: ELISA ligand-binding inhibition, cPD-L1_hFc on the plate, competitor PD-1-Biotin (206 nM)
Method: cPD-L1 fusion proteins were directly immobilized on the plate overnight at 4° C., commonly in a concentration of 57 nM. For […] ELISA, black 384 well Maxisorp plates were used. The coated plates were washed 3× with PBS-T, followed by blocking with Chemiblocker (Merck-Millipore; 2170) for 1 h at RT. The blocked plates were washed 3× with PBS-T, followed by addition of titration-series of blocking antibodies and incubation for 1 h at RT. Subsequently plates were washed again 3× with PBS-T and PD-1-Biotin (1× biotinylated via Avi-tag; Sinobiological Cat.: 70109-D27H-B) was added and incubated for 1 h at RT, usually in a concentration of 4 μg/ml (206 nM). This concentration of canine PD-1-Biotin was previously identified as optimal by titrating the binding of PD-1-Biotin towards immobilized canine PD-L1_hFc. After incubation with the ligand PD-1, the plate was washed 3× with PBS-T and suitable detection reagent for the biotinylated PD-1, usually Streptavidin-HRP, was added and incubated for 1 h at RT. Subsequently, the plate was washed 5×, followed by addition of Quanta Blue and measurement as described above for the screening ELISA.

PD-L1-his [5] = target: T2, PD-L1-his; assay: grating-coupled interferometry, KD compared with that of CAN1005010H2
Method: as §1
as §2, with “Data were corrected (X and Y offset, DMSO calibration, double referencing) and fitted with a simple 1:1 interaction model (global fit) to obtain kinetic parameters.” left out

[6] = target: T1, biotinylated cPD-L1_hFc (Sino …); assay: Fab-capture ELISA: Fab from lysate on anti-canine Fab antibody, cPD-L1-biotin titrated
Method: To identify derivatives with a higher affinity, an alternative ELISA setup was used for screening to better normalize BEL expression levels and differentiate Fabs more efficiently with respect to their affinity. In contrast to the previous screening ELISA setup, a Maxisorp plate was coated over night with an anti-canine Fab antibody in a low density of 1 μg/ml. Coated plates were washed 3× with PBS-T, followed by loading with diluted BELs. After the BEL incubation and washing with PBS-T, dilution series of cPD-L1-biotin was added to the plate. Detection was performed with Streptavidin-HRP, followed by more stringent 5× washing with PBS-T and Quanta Blue substrate addition. Measurement was performed as described before (Example 1).

[7] = target: T4, cPD-L1_hFc (canine PD-L1 Fc-fusion …); assay: binding ELISA, cPD-L1 fusion protein on the plate

B1: CAN1005016 Fab (Fab, V domains shown)
VH: EVQLVESGGDLVKPGGTLRLSCVASGFTFSSYDMSWVRQSPGKGLQWVAVIWNTGSHAYYADAVKGRFTISRDNAKNTLYLQMNSLRAEDTAVYYCARGRQPRLVGTLDLWGQGTLVTVSS
VL: SYVLTQLPSVSVTLRQTARITCGGDSIGSKNVYWYQQKLGQAPVLIIYDDSSRPSGIPERFSGANSGNTATLTISGALAEDEADYYCQTYDSLVDVGVFGGGTQLTVL
EC50 [1]: 0.087 nM

B4: CAN1005001L1 Fab (Fab, V domains shown)
VH: EVQLVESGGDLVKPAGSLRLSCVASGFTFSSYSMSWVRQAPEKGLQLVAGISSGGSSTYYTDAVKGRFTISRDNAKNTVYLQMNSLRAEDTAMYYCARGQGGRSSFDYWGQGTLVTVSS
VL: B1 VL with T89S, S92I, L93P, V94L, D95T, V96G, G97T
notes: Fab from bacterial lysate
EC50 [6]: 0.362 nM

B5: CAN1005001 IgG (antibody, V domains shown)
VH: B4 VH
VL: B1 VL with T89S, D91A, S92M, L93P, V94L, D95T, V96G, G97T
notes: also called initial clone CAN1005001; parental clone CAN1005001
EC50 [7]: 0.4 nM
IC50 [4]: 4.6 nM

B6: CAN1005001 Fab (Fab, V domains shown)
VH: B4 VH
VL: B1 VL with T89S, D91A, S92M, L93P, V94L, D95T, V96G, G97T
notes: also called parental clone CAN1005001
EC50 [6]: 0.82 nM

B7: CAN1005001H3 Fab (Fab, V domains shown)
VH: B4 VH with G50W, S52D, S53A, G54Y, G55A, S56G, S57V, Y59S, T61A, D62N
VL: B1 VL with T89S, D91A, S92M, L93P, V94L, D95T, V96G, G97T
notes: Fab from bacterial lysate
EC50 [6]: 0.097 nM

Further lines, results first:

Kd (PD-L1-his [2]): 2.8 nM
B2: CAN1005010H2 (as captured in the GCI measurement of anti-PD-L1 IgGs) (antibody, V domains shown)
VH: B1 VH
VL: B1 VL with Q88S, V94L
notes: also called parental clone CAN1005010H2

EC50 (canine PD-L1 on cells): 10.5 nM
EC50 [3]: 0.076 nM
Kd (PD-L1-his [2]): 0.77 nM
IC50 [4]: 0.95 nM
fold improvement in affinity against CAN1005010H2 (PD-L1-his [5]): > 3 fold
B3: CAN1005016 IgG (antibody, V domains shown)
VH: B1 VH
VL: SYVLTQLPSVSVTLRQTARITCGGDSIGSKNVYWYQQKLGQAPVLIIYDDSSRPSGIPERFSGANSGNTATLTISGALAEDEADYYCQTYDSLVDVGVFGGGTQLTVLG
notes: also called biotinylated CAN1005016

EC50 [1]: 0.138 nM
B8: CAN1005019 Fab (Fab, V domains shown)
VH: B4 VH with G50W, S52D, S53A, G54Y, G55A, S56G, S57V, Y59S, T61A, D62N
VL: B1 VL with T89S, S92I, L93P, V94L, D95T, V96G, G97T

EC50 [6]: 0.121 nM
B9: CAN1005010H2 Fab (Fab, V domains shown)
VH: B1 VH
VL: B1 VL with Q88S, V94L
notes: Fab from bacterial lysate

EC50 [6]: 0.139 nM
B10: CAN1005010L1 Fab (Fab, V domains shown)
VH: B1 VH with T54E, H57S, A58T
VL: B1 VL
notes: Fab from bacterial lysate

EC50 (canine PD-L1 on cells): 11.8 nM
EC50 [3]: 0.049 nM
Kd (PD-L1-his [2]): 1.7 nM
IC50 [4]: 1.32 nM
B11: CAN1005019 IgG (antibody, V domains shown)
VH: B4 VH with G50W, S52D, S53A, G54Y, G55A, S56G, S57V, Y59S, T61A, D62N
VL: B3 VL with T89S, S92I, L93P, V94L, D95T, V96G, G97T
notes: also called biotinylated CAN1005019
